# Article PMC10104018
# T1: RGG-GFP-RGG, TXTL-expressed (UniProt D0PV95 1-168)
# T1 chain: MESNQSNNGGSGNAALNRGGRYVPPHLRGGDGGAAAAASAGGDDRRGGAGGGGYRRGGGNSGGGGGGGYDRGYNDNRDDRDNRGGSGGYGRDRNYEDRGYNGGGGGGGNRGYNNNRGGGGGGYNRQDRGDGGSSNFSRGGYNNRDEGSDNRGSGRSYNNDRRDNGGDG
# T2: RGG-GFP-RGG (His), purified (UniProt D0PV95 1-168)
# T2 chain: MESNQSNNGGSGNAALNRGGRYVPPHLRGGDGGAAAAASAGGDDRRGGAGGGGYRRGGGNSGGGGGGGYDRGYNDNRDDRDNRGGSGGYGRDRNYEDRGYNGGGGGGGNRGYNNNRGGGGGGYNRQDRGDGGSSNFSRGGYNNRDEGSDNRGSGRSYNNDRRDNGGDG
# Legend:
# [1] = target: T1, RGG-GFP-RGG, TXTL-expressed; experiment: confocal fluorescence co-localization to condensates
# [2] = target: T2, RGG-GFP-RGG (His), purified; experiment: as above
binder,measurement,setting,value
UUUUUUUUUUUUUUU (ssRNA) [Cy5-U15],binding result,[1],binds
same,binding result,[2],binds
